Patent US6824783

These substances were tested against viral gp41 (HIV-1 transmembrane protein) of HIV-1IIIB (HIV-1 IIIB) (assay: cell-based or functional assay).

Point of comparison: “M41-P (M41 with an Ile to Pro mutation at position 578) (from UniProt P03377 540-686)”, Cell fusion (IC90) 0.083 µM. Against it:
- M41 (maltose binding protein fused to the extracellular domain of HIV-1 gp41, residues 540-686) (from UniProt P03377 540-686) — higher, > 50 µM
- M41-PΔ178 (M41-P from which the DP-178 region has been deleted; gp41 residues 540-642 with Ile578Pro) (from UniProt P03377 540-642) — higher, > 50 µM

Point of comparison: “M41-P (M41 with an Ile to Pro mutation at position 578) (from UniProt P03377 540-686)”, HIV infectivity (IC90) 0.066 µM. Against it:
- M41 (maltose binding protein fused to the extracellular domain of HIV-1 gp41, residues 540-686) (from UniProt P03377 540-686) — higher, > 16 µM
- M41-PΔ178 (M41-P from which the DP-178 region has been deleted; gp41 residues 540-642 with Ile578Pro) (from UniProt P03377 540-642) — higher, > 8 µM
